Reference: patent US20220127366A1 (DREN BIO, published 2022)
Like-named read-outs stand apart in the source and are kept apart here.

T1: human Dectin-1 (isoform not given) (human, UniProt Q9BXN2 1-247)
T1 chain: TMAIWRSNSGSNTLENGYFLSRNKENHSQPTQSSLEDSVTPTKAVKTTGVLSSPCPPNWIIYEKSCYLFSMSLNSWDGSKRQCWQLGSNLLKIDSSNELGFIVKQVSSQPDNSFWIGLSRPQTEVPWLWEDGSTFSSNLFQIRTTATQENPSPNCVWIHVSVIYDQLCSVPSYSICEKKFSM

T2: human CD20 (human, UniProt P11836 1-297)
T2 construct: whole, on cells; also called hCD20
T2 sequence (looked up): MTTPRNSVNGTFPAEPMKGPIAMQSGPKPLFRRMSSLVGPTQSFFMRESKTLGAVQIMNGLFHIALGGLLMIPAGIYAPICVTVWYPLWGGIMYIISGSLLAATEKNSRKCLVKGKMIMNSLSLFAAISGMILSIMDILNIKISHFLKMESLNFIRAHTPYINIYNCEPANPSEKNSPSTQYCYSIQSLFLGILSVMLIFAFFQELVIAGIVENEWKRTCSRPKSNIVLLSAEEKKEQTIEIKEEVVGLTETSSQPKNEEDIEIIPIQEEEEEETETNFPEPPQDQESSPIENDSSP

B1: 2M24/RSV hIgG1 (fucosylated or afucosylated) (bispecific antibody, V domains shown)
VH 1: QVQLVQSGAEVKKPGASVKVSCKSSGYTFTDYYIHWVRQAPGQGLEWMGWINPNSGDTNYAQKFQGRITMTRDTSISTAYLELSRLRSDDTAVFYCARNSGSYSFGYWGQGTLVTVSS
VL 1: DIQMTQSPSSVSASVGDRVTITCRASQGISSWLAWYQQKPGKAPKLLIFGASSLQSGVPSRFSGSGSGTDFTLTVSSLQPEDFATYYCQQAYSFPFTFGPGTKVDIE
VH 2: QVTLRESGPALVKPTQTLTLTCTFSGFSLSTSGMSVGWIRQPPGKALEWLADIWWDDKKDYNPSLKSRLTISKDTSANQVVLKVTNMDPADTATYYCARSMITNWYFDVWGAGTTVTVSS
VL 2: DIQMTQSPSTLSASVGDRVTITCKCQLSVGYMHWYQQKPGKAPKLLIYDTSKLASGVPSRFSGSGSGTAFTLTISSLQPDDFATYYCFQGSGYPFTFGGGTKLEIK
B2: 2M24/RSV hIgG1 inert (bispecific antibody, V domains shown)
VH 1: B1 VH 1
VL 1: B1 VL 1
VH 2: B1 VH 2
VL 2: B1 VL 2
notes: also called 2M24/RSV with inert human IgG1 Fc
B3: Fab 2M24-mSA fusion protein (Fab, V domains shown)
VH: B1 VH 1
VL: B1 VL 1
notes: only the 2M24 VL is tied; also called Fab 2M24 fusion to monomeric streptavidin
B4: anti-Dectin-1 antibody 15E2 (commercial) (antibody, V domains shown)
VH: QWQLQQSGAELARPGASWKMSCKASGYTFTTYTMHWWKQRPGQGLEWIGYINPSSGYTNYNQKFKDKATLTADKSSSTASMQLSSLTSEDSAWYYCARERAVLVPYAMDYWGQGTSVTVSS
VL: QIVLTQSPAVMSASPGEKWTITCTASSSLSYMHWFQQKPGTSPKLWLYSTSILASGVPTRFSGSGSGTSYSLTISRMEAEDAATYYCQQRSSSPFTFGSGTKLEIK

Key:
[1] = target: T1, human Dectin-1 (isoform not given); test: flow cytometry, human monocytes
[2] = target: human Dectin-1 isoform A (human) (UniProt Q9BXN2); test: flow cytometry, HEK-Blue hDectin-1a cells
[3] = target: human Dectin-1 isoform A (human) (UniProt Q9BXN2); test: flow cytometry, HEK293F hDectin-1a FL cells
[4] = target: human Dectin-1 isoform B (human) (UniProt Q9BXN2); test: flow cytometry, HEK-Blue hDectin-1b cells
[5] = target: cynomolgus monkey Dectin-1 (cynomolgus monkey); test: flow cytometry, cynomolgus monkey monocytes
[6] = target: cynomolgus monkey Dectin-1 (cynomolgus monkey); test: flow cytometry, cynomolgus monkey monocytes; remark: listed apart in the source
human CD20 = target: T2, human CD20; test: flow cytometry, Raji cells
[7] = target: T1, human Dectin-1 (isoform not given); test: flow cytometry, HEK 293 cells stably overexpressing human Dectin-1
[8] = target: T1, human Dectin-1 (isoform not given); test: cell-based or functional assay

| Molecule | EC50 [1] | EC50 [2] | EC50 [3] | EC50 [4] | binding result (human CD20) | further results |
| --- | --- | --- | --- | --- | --- | --- |
| anti-Dectin-1 antibody GE2 (commercial) | 1.4 nM | 1.9 nM | 2.4 nM | 12 nM |  |  |
| anti-Dectin-1 antibody 259931 (commercial) | 0.3 nM | 0.8 nM | 1.2 nM | 0.9 nM |  | EC50 [5]: 16.5 nM; EC50 [6]: 16 nM |
| B1 |  |  |  |  | no binding (tested: between 10 and 100 nM (about 60 nM)) |  |
| B2 |  |  |  |  | no binding (tested: between 10 and 100 nM (about 60 nM)) |  |
| B3 |  |  |  |  |  | EC50 [7]: 1.45 nM |
| B4 |  |  |  |  |  | IFNg secretion in PBMC (fold change to isotype), immobilized antibody [8]: 1.6 fold change to isotype; IL6 secretion in PBMC (fold change to isotype), immobilized antibody [8]: 2.6 fold change to isotype; TNFa secretion in PBMC (fold change to isotype), immobilized antibody [8]: 3 fold change to isotype |
